Test results published in the DeepSol protein solubility set.

assay: soluble on expression in E. coli; label from the status in PepcDB or PDB records

Soluble on expression in E. coli, soluble:
MNLRSVFTVEQQRILQRYYENGMTNQSKNCFQLILQCAQETKLDFSVVRTWVGNKRRKMSSKNSESGTATTGTSLSAPDITVRNVVNIARPSSQQSSWTSANNDVIVTGIYSPASSSSRQGTNKHTDTQITEAHKIPIQKTATKNDTEFQLHIPVQRQVAHCKNASLLLGEKTIILSRQTSVLNAGNSVFNHAKKNYGNSSVQASEMTVPQKPSVCHRPCKIEPVGIQRSYKPEHTGPALHNLCGQKPTIRDPYCRTQNLEIREVFSLAVSDYPQRILGGNAPQKPSSAEGNCLSIAMETGDAEDEYAREEELASMRAQIPSYSRFYESGSSLRAENQSTTLPGPGRNMPNSQMVNIRDMSDNVLYQNRNYHLTPRTSLHTASSTMYSNTNPLRSNFSPHFASSNQLRLSQNQNNYQISGNLTVPWITGCSRKRALQDRTQFSDRDLATLKKYWDNGMTSLGSVCREKIEAVATELNVDCEIVRTWIGNRRRKYRLMGIEVPPPRGGPADFSEQPESGSLSALTPGEEAGPEVGEDNDRNDEVSICLSEGSSQEEPNEVVPNDARAHKEEDHHAVTTDNVKIEIIDDEESDMISNSEVEQVNSFLDYKNEEVKFIENELEIQKQKYFKLQTFVRSLILAMKADDKEQQQALLSDLPPELEEMDFNHASLEPDDTSFSVSSLSEKNVSESL
MSLGSRNGEKDWENASTTSSVASGTEYTGPKLYKEPSAKSNKHIIQNALAHCCLAGKVNEGQKKKILEEMEKSDANNFLILFRDSGCQFRSLYTYCPETEEINKLTGIGPKSITKKMIEGLYKYNSDRKQFSHIPAKTLSASVDAITIHSHLWQTKRPVTPKKLLPTKEGHHHHHH
MSLIENLWRGICIISASEDAFSAGETIKEKLKSFEIPVVHYRYKDAEIETIWKCYDAIVFVMALEGATRIVCKYAKSKTEDPAIVCIDDKINYVIPLLGGHWGANDIARELSVILNSTPIITTAAEIKGKLSIERIANILIAKIINPENIVKINAALLRDESICIDGIDVNVNFPENIKVNSEECSYIISLRGDKEYKDKIVVWLKPLKISIGIGSKKDVKMEEIRDGIYKVLERLNLKRERIGIIASIREEVKKIADEFNVRFRLVNEEEINNFMNPCLTPPSKTLIEVGLKGVAEISALIAGGRNSKLILRKIAISRNSTIAVATYEGHHHHHH
GMGKEIEIERKTLVSKETFKRLISQLHIGEGDFKLQRNHYFETDDFQLKKQSSALRIREKEAIFTFTLKQPHPAGLLETNQTLSKQEAKLALESAHFPSGEVMDALRDLSIPISQLKHIGTLSTSRAEISYEQGILCLDHSSYLGIEDYEIEFEGTSEEHATVTFQEILKTFSISQVPTENKIQRFFSKKEKN
AHHHHHHGSILDVRGLKPPQPTLMILENLGKLKIGETLEVLGDKPFVDIIPKLEEAGYQVELNKVGEFFVLKVTKTEGSKELKMEVEECDEELKEITEDTNVAKLLKAYPESLDILVKYGFSPLQNPVLRKTLARTVTLKQAKKLIGMSDERFEEMMKELKKLEKR
MTETPMMDDLERVLYNQDDIQKRIRELAAELTEFYEDKNPVMICVLTGAVFFYTDLLKHLDFQLEPDYIICSSYSGTKSTGNLTISKDLKTNIEGRHVLVVEDIIDTGLTMYQLLNNLQMRKPASLKVCTLCDKDIGKKAYDVPIDYCGFVVENRYIIGYGFDFHNKYRNLPVIGILKESVYT
MSVEPTSVDPSPDKSAPANASGRADASARPSTGESARPSGGETPEVLRPHAEVTFAAELAALAAQDDRPRPVRWRLSPWAVATYLLGGTLPDGTVITPKYVGPRRIVEVAVTTLATDRALLLLGVPGTAKTWVSEHLAAAVSGDSTLLVQGTAGTPEEAIRYGWNYAQLLAHGPSRDALVPSPVMRAMADGMTARVEELTRVPADVQDTLITILSEKTLPIPELGQEVQAVRGFNLIATANDRDRGVNELSSALRRRFNTVVLPLPESADAEVDIVSRRVDQIGRSLDLPAVPDGVDEIRRVVTVFRELRDGVTTDGRTKLKSPSGTLSTAEAISVVTNGLALAAHFGDGVLRASDVAAGILGAVVRDPAADRVIWQEYLEAVVRERDGWMDFYRACREVSALEHHHHHH
GSMPKPGILKSKSMFCVIYRSSKRDQTYLYVEKKDDFSRVPEELMKGFGQPQLAMILPLDGRKKLVNADIEKVKQALTEQGYYLQLPPPPEDLLKQHLSVMGQKTDDTNK
MSLGIAGTNTVRLQVYTNLKTFKSGDEISDGWVAKFHTDGDYIKWFAIENEDSLEGKEIKLFDTYKVDYTGTIKEKEKGKVTYAVLKAYVAIDPLERQYKELTLGIGDEIEDTAYSIKDVDVEFEPKETYIPKKLTEPITVLDTEIMEQGLENVDSNLILVGGPVVNKVTAALAEDLGVPTTYDEWKEKFGTGADSGQIIYKEKCSKIGGYGVLLVAGTDREGTRAAAEALLEYISKLEGHHHHHH
MIGKNIKSLRKTHDLTQLEFARIVGISRNSLSRYENGTSSVSTELIDIICQKFNVSYVDIVGEDKMLNPVEDYELTLKIEIVKERGANLLSRLYRYQDSQGISIDDESNPWILMSDDLSDLIHTNIYLVETFDEIERYSGYLDGIERMLEISEKRMVA
MIITKNISLPELYQEWLDLKIMPSNRSDVTKKKYLSRKVTLEKLFGDKPISQIRPSEYQRIMNNYGQRVSRNFLGRLNTGVKQSLQMAIADKVMIEDFTQNVELFSTVKLEHHHHHH

Soluble on expression in E. coli, not soluble:
MMRNSHTIENFERMPDGETSSLPDITNYQESVDENPVEECSAYSDTIATCSMCLQVAPHSQFFACTYPGCGYALKQKESVKSPTLFYRKERVLCGACAFLGDHAHHKAYLLKADKLAFLTASREIGGKLEMDMEEVCRLDKSHPVDNAMIIKSGGHVELEKISVVSFLSQAKTIEEWHSRHCMVNEMLSTIKYNREQGIDYLRKQSEKVMTLLNNAAQEIKSVSRTLPKQLTNQDKPHTSFGRRQHASQKNTEWANEEYSPFSSTCSESSTSTLHMAKALQSVDDEVTGGFGGFGFGFGASAVNKSLKGQIKSENYTSIAVTRLYKMLIRTEPKETALRRAADYLNELTHSKTEKKAVIEYMEKKHSIKWPEHII
MGSDKIHHHHHHMKRIGIIAAWQPELNYLHEEYPSRKVRKIAAWEFHYHSINNLEIISVISGVGKTNCSSCTQLLISEFRPDEIYMTGICGSLSDSIKGGEIVIARQMLQHDVTNAGKGDDVWDLYTGRTSIIDGDNSIFSDFLNFAINTSEHKINNGMFISGDQRIREDVLRSSLSSTHNAIAVDQEIASFSYVSYVNKIPFLCVKSVSDQADNKTIEDQKRFKLLACENSCKLLIEFLLR
MGSDKIHHHHHHMLIDEEITLKKLETFLAFMRTGNLARAAAELGTSNVSVHRAIHSLESALRCPLFKHEGRNLTPLESAYVLEERAQKLVQEVLDTVRLTREAAGFSAERFKLGALYSLTVKTVPQLIMGLKLRRSALNIDLILGSNVDLFYQLKNMELDAILVSLNDSVSDPDCEHLPLFSDDIFLAVPVDSPYARLAEIDLSTLRDTPFVTLTQGFATHQDGTRVFQQAGFEPQIAMQVNDIFTLLSMVSSGVGHALLPKRIEAVYENRVRLIPLQPRYRLQQHIGVVFLKAKERDPNLLALLAECRMYSLRLEQEAAG
MLKGKVALVTGASRGIGRAIAKRLANDGALVAIHYGNRKEEAEETVYEIQSNGGSAFSIGANLESLHGVEALYSSLDNELQNRTGSTKFDILINNAGIGPGAFIEETTEQFFDRMVSVNAKAPFFIIQQALSRLRDNSRIINISSAATRISLPDFIAYSMTKGAINTMTFTLAKQLGARGITVNAILPGFVKTDMNAELLSDPMMKQYATTISAFNRLGEVEDIADTAAFLASPDSRWVTGQLIDVSGGSCL
MAHHHHHHMNFLGGSLRSGGGHRREKGFSAKNKVQQYHGDGSESIVLAGRPFRVLQKISDVPPPYMVTRQRSTKYGEGGSSYVYLVENTSHLPEFPRHLALKRSFFGVDQVMEAHKEVEIVSRIEDKNIVCVYHSEISRSEGRLGVSIAMEYCSNNLYHRIRSSAGTGIVTRLTEAEICHVMFAVTSAVGYLHAQQPPITHRDIRPENILINNKHAGPTAYKLTNFGNATTEAYQCETREEANMAIADIQMHTNPAFRAPEMADPWSKKRICEKTDMWSMGVLLYYMMYMSLPFDPSTTIVKDWALTFPSEATASYTPSLRVITEHLLDPDPCSRWDVFALINYMRFDEDCSRHLGTFCFTKTEWPEGWEEHDVKVLGRTPPPKAPPVSYNEPGHEQLDSRGLRGQERVHGHTNGHQPPDDRGNGRDSAVVDGAAVQEAMIVLGGDPADDDPAVAKYRHQIIMVQQEAWRRAKAAAGLRDSPPTEPQESSAAPAPTRANNEAQKDVFDDLFASASPTVFPTSQASPAMGPSAPPATHQPPEKDVFSASDLFSTSAPQLDPSYPVMNTYGQAPQQMAMGGWGSGAPVMGSGGYPMQQPQNQQQAPWGYGVSNANNYAPPLPPQQQQQQQLQPFTNFLPPLSGQQPGQQQSQQQETSQPRTARATAKRDPFADLFN
MAIIRQRYQEQLDDLIKELRRLGANVYVSIENGIKSLSIDDRGFARQTVKNDKHINQLNYDINERVIMLITKQQPIASDLRMMISSLKIASDLERIGDNASSIANIRLRTKITDDYVLTRLKTMGKLAMLMLKDLDQAFKKKDTVLIREIIERDEDIDDLYSHIINATYLIDNDPFVAAQAHLAARHLERIGDHIINIAESVYFYLTGTHYEQ
MGSDKIHHHHHHMRRVSIYELDPGMIVARAIFNSEERVLLHAGVELNEKYIHGLQKAGVMSVYIRDELFDESDAVSDIISEKTRLKAIRTLKESFNLLEKKHQLNLHAVKNTVDEIIDEIIANPNTLVSLTDIRSFDDYTYAHSVNVGVLSIMSGVSLNYERSQLKELGVGALLHDIGKIKIDKNILNKPDDLSPEEFTEIKQHSKAGFDILRQHSGLSLLSAHIAFQHHERWDGQGYPRQLSGEEIHEYARIVAVADVYDALVADRPYRPAYSVTQAISILKRMTGLFLDPQCVKAFLNNIAVYPLGCLLELNTGELGAVIDINRKTPAQPVVRVLYDRNWRLLTPYELDLSKNSALVVKNVLSERQIKELKKNL
AHHHHHHGSKILYPTDFSEVSQKALTECVPSIILGIGEGSELILLHVVDITASEIGALELAEVDKEELNNLASQLREKGIKVKPIVRIGIPSLEISEVAKEENVDLIIIPSKGENILRQMLLGSTASNLARITHKPVLLLRYEVENGEIKSLQDCSRIFEKPLVALDLSKCSEKIIETIKDLPGVREAVLFHVVDYGKVEELENNIKNAKEKLSKYGKLLPWKTKIEVQAGIASKGIIGAAIDNNVTLVVIGKKGRSVLKDLLLGSTAERVIRDCKLPTLLIPCE
GPGSMERIPLVVRRMVAAEQSCGFVHFFASLADASATPLVIEAKAFSSAAAGGAADDAAPTYQLVYDVMRSRNGHILFKKSYAERFTHSLALAAPVHALPAQLRSLVQSRLQAYIESPGVYLDGATERNVKLLSWIPATAASTTQEEAFPIPGIVMLVKSSYPSESMYREGAKLGLLFNAHRTNPNAKVAQMGLRDRANAYLAENDVYEVLLVHDAADAYLVPEGSRSNYLLQKSDGTWWCSAEEDILVGITLKTTYRVVQACGLGSVQHAKLTLKDILESKSLFILGTSPTIMPVQSVLLYRDTETRRLYEEAVRGLGTTAGTVQQVSDDKAELLFPVNVELAAALRAQYFAEAASS
MSKVMNALKQSQQKYLQAQPVSRRTYTEQEPTAMNPSRWLHLALWLVPGLVTAGVMTYQRYELVQQEVANRQTEPTTVQVDAPLERLAYPEFQDLQPTFVESGLDEPYPEEDVTALADNIVAPPATIQASGQQSASNKALGDLDLTQLSPELALRVQAIMRDQSSEPATPSTPTSAAVSLTQHSDRYQGQLPALNFQMHAFSSNEQKRWIKVNGVEYREGDMLTPEVKLESIKPQSSVIIFGGEEIEIPALYDWKG
